Data taken from PMC12557302.

Target: CD36 on human monocytes / monocyte membrane extract (Homo sapiens, UniProt P16671 1-472)
Experiment: pull-down with mass spectrometry

Sequence of CD36 on human monocytes / monocyte membrane extract (P16671 whole entry): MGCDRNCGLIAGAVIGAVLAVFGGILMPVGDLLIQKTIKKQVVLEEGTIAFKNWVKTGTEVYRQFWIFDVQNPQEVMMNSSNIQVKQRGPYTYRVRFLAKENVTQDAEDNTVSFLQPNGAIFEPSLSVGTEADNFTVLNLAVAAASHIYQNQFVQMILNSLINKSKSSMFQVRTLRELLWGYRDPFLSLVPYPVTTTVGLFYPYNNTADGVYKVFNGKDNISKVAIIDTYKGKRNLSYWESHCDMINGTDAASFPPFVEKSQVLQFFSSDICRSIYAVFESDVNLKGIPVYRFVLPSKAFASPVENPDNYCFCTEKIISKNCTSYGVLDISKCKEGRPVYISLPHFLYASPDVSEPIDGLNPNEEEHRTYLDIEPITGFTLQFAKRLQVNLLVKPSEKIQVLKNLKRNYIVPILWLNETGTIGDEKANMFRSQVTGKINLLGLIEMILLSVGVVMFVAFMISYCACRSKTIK

B1: CD36Apt (Mono.A2) (ssDNA)
DNA: ATCCAGAGTGACGCAGCAGAAGAGTAGATGAAACGTTTTTTCGCCCGATAAAAGGGACGTGCGTCAGACATGGACACGGTGGCTTAGT
B1: binds.
